# Results reported in patent US20250236667A1, “ANTIBODIES TO MUTANT CALRETICULIN AND USES THEREOF” (CENTRAL ADELAIDE LOCAL HEALTH NETWORK INC, priority 2021, published 2025).
# Tests used:
# [1] = test system: TF-1 TpoR CALR^del61 cells in NSG mice; experiment: Chloroma xenograft model (subcutaneous injection); format: in vivo
# Procedure: (§1) All procedures were approved by the South Australian Health and Medical Research Animal Ethics Committee (Protocol SAM21-018). Bone marrow engraftment model: 4-6 week old NSG mice were x-ray irradiated with 150 cGy and 5×10^5 cells (TF-1-TpoR CALR^del61) or 5×10^4 cells (100 nM ruxolitinib resistant TF-1 TpoR CALR^del61) were intravenously injected into mice. […] Tail vein bleeds were taken at 3 weeks and analysed via flow cytometry to determine human leukaemia content in the peripheral blood. Leukemic cells were PI-, mCD45.1, hCD33+, zsGreen+. Mice were monitored daily and euthanized once clinical symptoms were observed. At the time of euthanasia, cardiac puncture was performed to obtain both peripheral blood and serum for analysis. Additionally, bone marrow from both femurs, spine and spleens were analysed for leukemic content as detailed above. Chloroma model: 4-6 week old NSG mice were anaesthetised by isoflurane inhalation and shaved on the left back/flank and 1×10^7 cells were injected into the mice. Cells were pre-treated with 20 μg/mL IgG or 4D7 for 1 hour prior to injection. […] Tumour progression was assessed through caliper measurements every 2 days. Mice were euthanised once tumours began to impede movement, show signs of ulceration or if any measurement of the tumour exceeded 30 mm (length, width or depth).
# [2] = test system: wild type TF-1 TpoR expressing cells; experiment: Flow cytometry of 4D7 binding to the cell surface, wild type cells; format: cell-based, human; details: PE-conjugated 4D7; wild type TF-1 TpoR cells
# [3] = test system: ruxolitinib-resistant TF-1 TpoR CALR^del61 cells in NSG mice; experiment: Bone marrow engraftment xenograft model, ruxolitinib-resistant cells; format: in vivo; details: cells resistant to 100 nM ruxolitinib; 12.5 mg/kg twice weekly from day 7; P=0.0008
# Procedure: All procedures were approved by the South Australian Health and Medical Research Animal Ethics Committee (Protocol SAM21-018). Bone marrow engraftment model: 4-6 week old NSG mice were x-ray irradiated with 150 cGy and 5×10^5 cells (TF-1-TpoR CALR^del61) or 5×10^4 cells (100 nM ruxolitinib resistant TF-1 TpoR CALR^del61) were intravenously injected into mice. Seven days after injection, mice were administered 12.5 mg/kg IgG or 4D7 by intraperitoneal injection twice weekly. Tail vein bleeds were taken at 3 weeks and analysed via flow cytometry to determine human leukaemia content in the peripheral blood. Leukemic cells were PI-, mCD45.1, hCD33+, zsGreen+. Mice were monitored daily and euthanized once clinical symptoms were observed. At the time of euthanasia, cardiac puncture was performed to obtain both peripheral blood and serum for analysis. Additionally, bone marrow from both femurs, spine and spleens were analysed for leukemic content as detailed above. Chloroma model: 4-6 week old NSG mice were anaesthetised by isoflurane inhalation and shaved on the left back/flank and 1×10^7 cells were injected into the mice. Cells were pre-treated with 20 μg/mL IgG or 4D7 for 1 hour prior to injection. Seven days after injection, mice were administered 12.5 mg/kg IgG or 4D7 by intraperitoneal injection twice weekly. Tumour progression was assessed through caliper measurements every 2 days. […]
# [4] = test system: mutant CALR neoepitope peptides; experiment: Binding of 4D7 to peptides covering regions of the immunizing neopeptide; parameters: species or system human
# Procedure: B. Diluting concentrations of 4D7 to bound full-length 30 amino acid peptide compared to scrambled, C-terminal and N-terminal 11 amino acid peptides as shown in A (n=3). C. Scatchard analysis showing dissociation constant of 4D7 using I^125-labelled and unlabelled 4D7 bound to full-length 30 amino acid peptide (n=3). D. Histogram showing fluorescence intensity of 4D7 conjugated to phycoerythrin at a 4 μg/mL TF-1 TpoR CALR^del 61 vs TF-1 TpoR compared to unstained. E. TF-1 TpoR cells with endogenous wild type CALR cultured in the presence of TPO and 2, 10 or 20 μg/mL 4D7 anti-mutant CALR antibody or 20 μg/mL control IgG antibody (n=3). F. Proliferation curves of factor-independent TF-1 TpoR CALR^del61 cells cultured with 2, 10 or 20 μg/mL 4D7 or 20 μg/mL of control IgG antibody (n=3). G Proliferation curves of factor-independent TF-1 TpoR CALR^del52 cells cultured with 10 or 20 µg/mL 4D7 or 20 μg/mL of control IgG antibody (n=3). Data information: For panels E-G, bars represent standard error of the mean summarizing 3 independent experiments performed in triplicate, with a one-way ANOVA with Bonferroni correction used to determine statistical significance.
# [5] = test system: TF-1 TpoR CALR^del61 cells; experiment: Cell cycle analysis by flow cytometry (propidium iodide); format: cell-based, human; details: 20 μg/mL, 48 hours; P=0.001
# Procedure: Cell cycle analysis was carried out by flow cytometry. Briefly, TF-1 TpoR and TF-1 TpoR CALR^del61 cells were seeded at a concentration of ˜2×10^5 per well in triplicate under standard culture conditions, with the addition of 20 μg/mL IgG or 4D7. Cells were treated for 48 hours and were fixed by 70% (v/v) ethanol at 4° C. overnight. Fixed cells were rinsed twice with PBS and stained with 50 μg/mL propridium iodide (PI: ThermoFisher)+100 μg/mL RNAse A (QIAGEN). Cells were incubated for 30 minutes at RT in the dark and analysed on the BD FACSCantoII (BD Biosciences).
# [6] = test system: TF-1 TpoR CALR^del61 cells; experiment: Flow cytometry of 4D7 binding to the cell surface, mutant CALR cells; format: cell-based, human; details: PE-conjugated 4D7; vs unstained or isotype-PE control
# Procedure: TF-1 cells expressing TpoR and mutant CALR were incubated for 30 minutes 4D7 conjugated to phycoerthryin (PE) (Abcam, #AB102918) or IgG2a PE isotype control (ThermoFisher #12-4321-42) at the concentrations specified after pre-incubation with mouse serum. Cells were washed 1 × before analysis on a CytoFLEX (Beckman Coulter).
# [7] = test system: TF-1 TpoR CALR^del61 cells in NSG mice; experiment: Bone marrow engraftment xenograft model; format: in vivo
# Procedure: as §1
molecule,measurement,setting,value
"4D7: rat monoclonal IgG2a antibody against the mutant CALR neoepitope; VH SEQ ID NO: 5, VL SEQ ID NO: 7 (antibody, listed as Rattus rattus, V domains shown) VH: QVQLQQSGAELAKPGSSVKISCKASGYTFTNYDMSWIKQRPGQALEWIGAINPGNGVTDYNEKFRGKATLTVDKSSSTAFMQLSSLTPEDTAVYHCAREYRDNYGYFDYWGQGVMVTVSS VL: DIVLTQTPVSLSVTLGDQASISCRSSQSLEYSDGYTYLDWFLQKPGQSPQLLIYEVSSRFSGVPDRFIGRGSGTDFTLKISRVEPEDLGVYYCFQATHDPFTFGSGTKLEIK","survival, hazard ratio","[1]; 4D7 vs IgG, P=0.02",0.19
same,mean tumour volume,"[1]; 21 days post-engraftment, 12.5 mg/kg twice weekly, P=0.04",353 mm^3
same,binding to the cell surface,[2],but not wild type TF-1 TpoR expressing cells
same,"survival, hazard ratio",[3],0.26
same,binding to C-terminal portion of the immunogen,[4]; C-terminal 11 amino acid peptide,no binding
same,region of the immunizing neopeptide to which binding was mapped,[4]; peptides covering different regions of the neopeptide,11 amino acids of the N-terminus
same,binding to scrambled peptide,[4]; scrambled peptide,no binding
same,sub-Go fraction compared to IgG control,[5],significant increase
same,binding to the cell surface,[6],Specific binding
same,peripheral blood engraftment of human CD33+ myeloid cells,"[7]; 3 weeks, 12.5 mg/kg twice weekly i.p. starting day 7, P=0.01",0.04%
same,"survival, log-rank hazard ratio","[7]; 4D7 vs IgG, 12.5 mg/kg twice weekly, P=0.003",0.24
